Data on 3 molecules can be found in patent publication US20190375820A1 (ACCELERON PHARMA, published 2019).

In one assay the target is T1, activin C (UniProt P55103 237-352).
T1 sequence (looked up): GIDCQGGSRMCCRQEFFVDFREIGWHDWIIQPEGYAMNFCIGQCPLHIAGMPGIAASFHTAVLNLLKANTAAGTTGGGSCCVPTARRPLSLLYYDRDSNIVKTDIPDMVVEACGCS
Put plainly: SPR (Biacore); receptor-Fc captured via anti-Fc antibody, ligand injected. As to the method:
(§1) Ligands were injected and allowed to flow over the captured receptor protein.
In general terms: Surface plasmon resonance follows binding to a sensor surface in real time, without labels.

The next assay concerns the target T2, activin AC (UniProt P08476 311-426; P55103 237-352).
T2 sequence (looked up) 1: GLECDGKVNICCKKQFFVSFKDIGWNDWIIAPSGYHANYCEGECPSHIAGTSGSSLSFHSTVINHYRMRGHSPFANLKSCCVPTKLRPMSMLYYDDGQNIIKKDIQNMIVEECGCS
T2 sequence (looked up) 2: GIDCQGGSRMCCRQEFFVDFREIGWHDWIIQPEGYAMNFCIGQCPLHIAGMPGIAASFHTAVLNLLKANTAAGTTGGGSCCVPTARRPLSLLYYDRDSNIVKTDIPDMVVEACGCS
The assay is described as above. As to the method: as §1

B1: ALK7-Fc homodimer (Fc fusion)
chain: LSPGLKCVCLLCDSSNFTCQTEGACWASVMLTNGKEQVIKSCVSLPELNAQVFCHSSNNVTKTECCFTDFCNNITLHLPTASPNAPKLGPME
notes: also called ALK7-Fc homodimeric complex; ALK7 homodimer; not shown: linker and Fc domain
Consider B1, for which, in the assay with activin C, the binding result is on record as “no binding”.

B2: ActRIIB-Fc:ALK7-Fc heterodimer (Fc fusion)
chain 1: GRGEAETRECIYYNANWELERTNQSGLERCEGEQDKRLHCYASWRNSSGTIELVKKGCWLDDFNCYDRQECVATEENPQVYFCCCEGNFCNERFTHLPEAGGPEVTYEPPPTAPTGGGTHTCPPCPAPELLGGPSVFLFPPKPKDTLMISRTPEVTCVVVDVSHEDPEVKFNWYVDGVEVHNAKTKPREEQYNSTYRVVSVLTVLHQDWLNGKEYKCKVSNKALPAPIEKTISKAKGQPREPQVYTLPPSRKEMTKNQVSLTCLVKGFYPSDIAVEWESNGQPENNYKTTPPVLKSDGSFFLYSKLTVDKSRWQQGNVFSCSVMHEALHNHYTQKSLSLSPGK
chain 2: GLKCVCLLCDSSNFTCQTEGACWASVMLTNGKEQVIKSCVSLPELNAQVFCHSSNNVTKTECCFTDFCNNITLHLPTASPNAPKLGPMETGGGTHTCPPCPAPELLGGPSVFLFPPKPKDTLMISRTPEVTCVVVDVSHEDPEVKFNWYVDGVEVHNAKTKPREEQYNSTYRVVSVLTVLHQDWLNGKEYKCKVSNKALPAPIEKTISKAKGQPREPQVYTLPPSREEMTKNQVSLTCLVKGFYPSDIAVEWESNGQPENNYDTTPPVLDSDGSFFLYSDLTVDKSRWQQGNVFSCSVMHEALHNHYTQKSLSLSPG
notes: The receptor parts are the same in both pairs; only the Fc domains differ; also called ALK7-Fc:ActRIIB-Fc heterodimer; ActRIIB-Fc:ALK7-Fc heterodimeric complex
As for B2, in the assay with activin AC, the Kd came to 0.22 nM, the off-rate (koff) is 0.00057 s⁻¹ and the kon is 2.6e+06 M⁻¹ s⁻¹. Also, in the assay with activin C, binding was put at a Kd of 6.9 nM, the koff came out at 0.0024 s⁻¹ and the kon came to 350000 M⁻¹ s⁻¹.

B3: ActRIIB-Fc homodimer (Fc fusion)
chain: SGRGEAETRECIYYNANWELERTNQSGLERCEGEQDKRLHCYASWRNSSGTIELVKKGCWLDDFNCYDRQECVATEENPQVYFCCCEGNFCNERFTHLPEAGGPEVTYEPPPTAPTLLT
notes: also called ActRIIB-Fc homodimeric complex; ActRIIB homodimer; not shown: linker and Fc domain
In the assay with activin AC, B3 registered a Kd of 0.16 nM, a koff of 0.0031 s⁻¹ and a kon of 2e+07 M⁻¹ s⁻¹.

The term Kd denotes the free concentration of one partner at which half of the binding sites on the other are occupied at equilibrium, for simple one-to-one binding. Read a high Kd as weaker binding. As usually defined, the koff is the rate constant with which the complex falls apart. The low end stands for slow dissociation, the high end for fast dissociation. Usually kon stands for a measure of how fast the partners come together. Low values mean slower complex formation, high ones faster complex formation.
